Experimental data: patent US11649285B2

Target: human VISTA, native (on anti-CD3-activated human T cells and PBMCs) (human (homo sapiens))

division of CFSE-labeled human CD3+ T cells with plate-bound anti-CD3 and control rhIgG1Fc, flow cytometry (% CD3+ T cells dividing (72 hours)): > 40
Substance: control recombinant human IgG1 Fc
